Target: H4K20me1 peptide (monomethyllysine at K20)
Test: ITC; Microcal PEAQ-ITC; peptide (about 1.0–1.5 mM) and protein (about 0.8–0.12 mM as printed) in 100 mM NaCl, 20 mM HEPES pH 7.0, 2 mM β-mercaptoethanol; 20 °C
Conditions: both partners purified

B1: RDM15 Tudor domain (residues 598–662) (domain or fragment, Arabidopsis thaliana, UniProt Q8GUP3 598-662, looked up)
chain: LGQGKASGESLVGSRIKVWWPMDQAYYKGVVESYDAAKKKHLVIYDDGDQEILYLKNQKWSPLDE
notes: A Se-Met labelled form was also made; the structure was solved by SAD, so the crystal may hold the Se-Met protein; also called C-terminal Tudor domain of RDM15; source: E. coli BL21(DE3), purified (HisTrap, ulp1 digestion, second HisTrap, Superdex G75)
  Kd: 22.9 µM
